The data set deals with the molecule itself. Briefly: […]; 20 mM sodium phosphate pH 7, 100 mM NaCl, 2 mM TCEP.

B1: human tripartite motif-containing protein 25 (TRIM25), residues 183-380 (domain or fragment, UniProt Q14258 183-380, looked up)
chain: HKTCSPASLSQASADLEATLRHKLTVMYSQINGASRALDDVRNRQQDVRMTANRKVEQLQQEYTEMKALLDASETTSTRKIKEEEKRVNSKFDTIYQILLKKKSEIQTLKEEIEQSLTKRDEFEFLEKASKLRGISTKPVYIPEVELNHKLIKGIHQSTIDLKNELKQCIGRLQEPTPSSGDPGEHDPASTHKSTRPV
notes: not shown: His6, N-terminal, cleaved; SUMO, N-terminal, cleaved
For B1, the stoichiometry N (commonly a count of units in the complex or per binding partner) turned out to be 2.

The values above are taken from PMC12242641 (ACS Omega, 2025).
